According to article PMC11602143, “Human selenocysteine synthase, SEPSECS, has evolved to optimize binding of a tRNA-based substrate” (Nucleic Acids Research, 2024):

Target: the molecule itself
Assay: SEC-MALS; protein alone, 250 μl at 1 and 4 mg/ml on Superose 6 Increase 10/300; 20 mM Tris pH 8.0, 150 mM NaCl, 5% glycerol, 0.5 mM TCEP, 10 μM PLP; oligomeric state of the holoenzyme

Protein	stoichiometry N
Δ470 SEPSECS (human SEPSECS with Asp470 mutated to a stop codon) (domain or fragment, UniProt Q9HD40 1-469, looked up, Human SEPSECS truncated by a stop codon at the position of Asp470 (removes the α15–α16 loop and α16); made from pET15b-hWTSSS by site-directed mutagenesis; Same vector and purification as the wild type; also called Δ470 human SEPSECS; truncated mutant) MNRESFAAGERLVSPAYVRQGCEARRSHEHLIRLLLEKGKCPENGWDESTLELFLHELAIMDSNNFLGNCGVGEREGRVASALVARRHYRFIHGIGRSGDISAVQPKAAGSSLLNKITNSLVLDIIKLAGVHTVANCFVVPMATGMSLTLCFLTLRHKRPKAKYIIWPRIDQKSCFKSMITAGFEPVVIENVLEGDELRTDLKAVEAKVQELGPDCILCIHSTTSCFAPRVPDRLEELAVICANYDIPHIVNNAYGVQSSKCMHLIQQGARVGRIDAFVQSLDKNFMVPVGGAIIAGFNDSFIQEISKMYPGRASASPSLDVLITLLSLGSNGYKKLLKERKEMFSYLSNQIKKLSEAYNERLLHTPHNPISLAMTLKTLDEHRDKAVTQLGSMLFTRQVSGARVVPLGSMQTVSGYTFRGFMSHTNNYPCAYLNAASAIGMKMQDVDLFIKRLDRCLKAVRKERSKES	4
Human SEPSECS (O-phosphoseryl-tRNA^Sec selenium transferase), wild type (enzyme, Human SEPSECS, wild type, cloned into pET15b (pET15b-hWTSSS); no tag cleavage is described in the purification; PLP cofactor is present in the buffers; also called WT SEPSECS; human WT SEPSECS) MNRESFAAGERLVSPAYVRQGCEARRSHEHLIRLLLEKGKCPENGWDESTLELFLHELAIMDSNNFLGNCGVGEREGRVASALVARRHYRFIHGIGRSGDISAVQPKAAGSSLLNKITNSLVLDIIKLAGVHTVANCFVVPMATGMSLTLCFLTLRHKRPKAKYIIWPRIDQKSCFKSMITAGFEPVVIENVLEGDELRTDLKAVEAKVQELGPDCILCIHSTTSCFAPRVPDRLEELAVICANYDIPHIVNNAYGVQSSKCMHLIQQGARVGRIDAFVQSLDKNFMVPVGGAIIAGFNDSFIQEISKMYPGRASASPSLDVLITLLSLGSNGYKKLLKERKEMFSYLSNQIKKLSEAYNERLLHTPHNPISLAMTLKTLDEHRDKAVTQLGSMLFTRQVSGARVVPLGSMQTVSGYTFRGFMSHTNNYPCAYLNAASAIGMKMQDVDLFIKRLDRCLKAVRKERSKESDDNYDKTEDVDIEEMALKLDNVLLDTYQDASS	4
